Target: the molecule itself
Assay: cryo-EM structure; single-particle cryo-EM with Build and Retrieve (BaR) on the 100-200 kD SEC peak of raw human kidney microsome lysate; 20 mM Tris-HCl pH 7.5, 100 mM NaCl; 0.6 mg/ml

B1: betaine-homocysteine methyltransferase (BHMT) (enzyme, human (endogenous in kidney microsomes), UniProt Q93088 1-406, looked up)
chain: MPPVGGKKAKKGILERLNAGEIVIGDGGFVFALEKRGYVKAGPWTPEAAVEHPEAVRQLHREFLRAGSNVMQTFTFYASEDKLENRGNYVLEKISGQEVNEAACDIARQVADEGDALVAGGVSQTPSYLSCKSETEVKKVFLQQLEVFMKKNVDFLIAEYFEHVEEAVWAVETLIASGKPVAATMCIGPEGDLHGVPPGECAVRLVKAGASIIGVNCHFDPTISLKTVKLMKEGLEAARLKAHLMSQPLAYHTPDCNKQGFIDLPEFPFGLEPRVATRWDIQKYAREAYNLGVRYIGGCCGFEPYHIRAIAEELAPERGFLPPASEKHGSWGSGLDMHTKPWVRARARKEYWENLRIASGRPYNPSMSKPDGWGVTKGTAELMQQKEATTEQQLKELFEKQKFKSQ
notes: human BHMT, endogenous in kidney microsomes; Zn2+-free and ligand-free in the structure; also called betaine-homocysteine S-methyltransferase; source: endogenous, human kidney microsomes (bought: SEKISUI XenoTech), lysate enriched by size exclusion chromatography
**Q.** Which “stoichiometry N” value does the source give for B1 here?
**A.** 4

Source: publication PMC9713302, “Simultaneous solving high-resolution structures of various enzymes from human kidney microsomes” (Life Science Alliance, 2022)
